Molecular target: Aspergillus nidulans (An) Rpf2 (Aspergillus nidulans)
Experiment: SEC; size exclusion chromatography of the An Rpf2-Rrs1 complex in solution; conditions not given (preparation in ref. 22)

stoichiometry N: 1
Substance: Aspergillus nidulans (An) Rrs1 (natural protein)

From paper PMC4482071
